assay: soluble on expression in E. coli; label from the status in PepcDB or PDB records

Sequence | soluble on expression in E. coli
MGSDKIHHHHHHMAGANNPVITIKRGLDIPIAGEPLQQIDDAPKTTQVALIGEEYVGLKPTMSVEVGDHVVKGQVLFEDKKTPGVLFTAPASGVVCAINRGERRVLQSVVIDCDATQEPAIILESVDIHALSHQAVKDGLVRSGLWTALRTRPFSRVPQLDAAPAGIFVTAIDTNPLAPDPRVIIATQPQAFQAGLFALTFLTTEKVYLCQDDGASLLADASSEYDLSKVSVQRFNGVHPAGLVGTHIHFLLPASIERQVWHVGYQDVIAFGKLFLTGELYTDRIVALGGPNVLKPRLVRTQLGAKLSEWVNGEIDQRQSRIVSGSLLSGHTAADVYDFLGRFHNQISVLTENERQELLPWVRHDSSKFSLTGIMMSGFSRTKKLFDFTTNAGGSPRAMMAFGQLARVMPLDILPILLVRDLVVRDTDEAQLLGALELDEEDLALCTFVCPGKYDFGKELRACLDIIEREG | not soluble
MGSDKIHHHHHHMAGMQIQGMQIESIDIQNYRLFKQASLNKLSRLAVFVGENGAGKSTIFDVFSFLKDSLAQNAAKAVARRGGFKELVSRGTEGPISITLKFRETGGRLATYELSVAFEGGRVVVDREVLKFRRGQRGQPWHFVDFSRGRGTAVTNEAMYGKPGVKVERKEYILDEPTVLAIKGLGQFKEFRVVSEFRNLIENWHITDFHIADARPSAEEGYAEHLSTRGDNVAQVAQFLYDHHPDRFNNILDAMKRRIPGVEKVEAKPTEDGRLVLRFQDGAFKDPFIARYVSDGTIKMFAYLVLLHDPNPFPLLAVEEPENQLYPELLQELAEEFRDYARRGGQVFISTHSPEFMNGLYLDEIYWLSKKDGYSTIYRGADSEVLKRLVAEGDHPGALWRQGVFKGAW | not soluble
MGSDKIHHHHHHMAHLPQMKIPATYMRGGTSKGVFFSLTDLPAAAQVAGAARDAILLRVIGSPDPYGKHTDGMGGATSSTSKTVILSKSTQADHDVDYLFGQVSIDKPFVDWSGNCGNLTAAVGSFAISNGLIDPSRVPENGTAIVRIWQANIHKTIIAHVPITNGEVQETGDFELDGVTFPAAEVQVEFLDPADGDGAMFPTGNVVDELNVPGVGTFKATMINAGIPTIFINAADIQYQGTELQDDINNDDKALAMFETIRAYGAVKMGLIKHIDEAVARQHTPKVAFVAPAANYISSSGKAVNTDDIDLVVRALSMGKLHHAMMGTAAVAIGTAAAIPGTLVNLAAGGGELSAVRFGHPSGTLRVGAQAALVQGQWQVKKAIMSRSARVLMEGKVSIPQ | not soluble
MGSDKIHHHHHHMAHPFLRTIFEVVITLYMLHNLYKVLGDDEMDLEEMSSFFNKRVNEYEEHMMNNVGGANQYYIETAKLIPRGKEINILDLGCGTGLELDEIFKINNTVRVTGIDLAENMLRKIKEKHKDKLDRLTLIVGDYFSCDIGEKVFDAALSVETLHHFNHEQKIKLYKKIVRSLKDNGVYIEADYMAPNQDYEDHCFNENKRIRLELGIKDGFYHYDTPCTVENQIKMLYKSGFKSVEKVFKAENTVILLAKK | not soluble
MGSDKIHHHHHHMAKGLFDRYIWLIDTIYRAGKITFEEINKRWLRTEMSNGEEIPLRTFHNHRKAIETMFDINIECNKRAGYYYYIENADDIDKDKIKKWLLNTFAINNLANESHRLKQRILFEDIPSGKQYLSSIIEAMLENRIIEITYQSYWKEEANTFTIEPFCVKVFKQRWYIIARSPYYDTIMIYALDRIQNLQVTDITFNYPSDFDPQSYFEFSFGIVVDEICNIDKIRIKVYGKKCQYIKALPLHHSQSEVETTKSYSIFEYLLKPTYDFCQELLSHGDEIEVLSPTSLKEQIKEIVKNMSRYYN | not soluble
MGSDKIHHHHHHMAKIGIVICNYNKQNDVIDCIQSVLESKYEDYHIYVVDNASTDESVRLIRECYGSCDRLTLIENSENLGGSGGFNTGLRVAMAEGHMYLMCVDNDALLDENCIGTLSDFLDSHEKAGIAAAKIYHTGQENYVQQYGSFIDYDNYSVDSTYLNHIEDGSMPDVVYSDAVPACALMIRRTVVEQIGVMPEENFLYWDDTEWCVRCREAGYEVASVGAAAASHAMGAKKEDINTFPTYYAWRNWIKFFLDHIDEERLSDMAETFLGSIFEINYTDLYRGEENRSKTVMAALDDALHKVMGKAKEDRIFNLELTYDGLERAIGDKSDIAIMAGEFPLYADALKEKIKVMWPDKRVYIVGLQDIDEAYGTAHFQPDATITICESIFRQDDLSLSTYVMDLDGNVLVDEDDVLMVINYNFSRRSFIFSMKPLFMRLSRQNYGF | not soluble
MGSDKIHHHHHHMAKVAHKKLLLSELQPGMRVKLPLSWTNHPFLFNRVDINSAAQIEMIRGLGVPFVYLISGSSDDAEAVDEEEEIEEIDEMPPERDLKADTRKSMRLSQKRFLESVNQCRNVFGKIVSDPEGAYRLSAALVEDLLSHLQEVQKPFLTLVGMDEKDVSVTQHGVSVAVLAMMIGHALDLPARELRDIALGSLFHDIGKLKVPDVIRRKRSALTPHEANYLQMHPNFGYDMLNRSGLFPKEVLNIVLHHHEFVDGSGFPDGLTGHKIPMVTQIVSLANDYDQQLSGQQATSPQVALGYLFKNRASKHSESLISVLVKILGIYPPGTIVKLSDDNVAKVIMTTKEVSQPQVWACKEDGSEASLRFLSDEGVTVQKSLRVEDLTEGAKRTLQVDKGISFYFSSLQA | not soluble
MGSDKIHHHHHHMALEVVLWDFDGVIFDSMHLKNEGFRALFQKHGNKNQESLKQFEVYHYQSGGISRNEKIQYFYNEILKTPIAQEEVDALALEFGTIIEQKLFDREHLNSEVMAFIDKHYKNHVFHIASAALHSELQVLCEFLGIIKYFKSVEGSPPNKPKIIANIIQKYAYNPGRMLMIGDSVNDYESAQANEVAFLGYNSKVLKNLVGQNGYQGKYLESFKGFDLQNFIKE | not soluble
MGSDKIHHHHHHMALKKICLENFTVFDKMEIEFCDGVNVLIGENGTGKTHIMKLLYAACQSAHASKKVISFPQKIVQVFKPDHANISRLLSRKAGNGSAKVHVISGNNTLKTSFNLKTKNWDAEVVGAQAWEKQLSNLTSTFIPAKEILSNSKNLVNAINVGNVDFDDTYKDIISVASVDINRGPNNVQKEKYLQILQDITDGKVSYENEEFYLLPGNQAKLEFQLVAEGMRKIALLWQLIKNGTLEQGTVLFWDEPEANINPKHIPALVEVLLNLQGDGVQIFIATHDYVLAKYLEIRMADANKIRFHSLYKKEGRVEVESNHNFKDLVNNSIAEAYNKLLDEVFEQTTKG | not soluble
MGSDKIHHHHHHMALRKNRGSRMQRNVIAMTEPKSLNSEQYRTIRTNIEFASVDRQMKSVMITSACPGEGKSTTAANLAVVFAQQGKKVLLIDADLRKPTVHTAFFLENTVGLTSVLLKKSSMEQAVQASNEKHLDVLTSGPIPPNPAELLSSKWMKELAYEACAAYDMVIFDTPPILAVADAQILGNVADGSVLVISSGKTEKEQAAKAKEALATCKSKLLGAIMNGKKLSKHSEYGYYGTKDNFMQK | not soluble
MGSDKIHHHHHHMALTQLEQPLSPQPTPPDLRGYEYDLVIVGGGIIGLTLASALKDSGLSILLIEAKVASAAVAKGQAYAVHQLSALIYQGIGVWDKILPQIAKYRRVRLSDADYPNVVEFTTDDIHTAELGYVAEHQALLQPLQEFVQDCPNVTYLCPAEVVNTQYQKDIVAVDIKVADQLYTVRSKLLIAADGARSPIRQAAGIKTSGWKYWQSCIVAFVKPEKPHNNTAYERFWSSGPFAILPLPENRCRIVWTAPHEEAKALCALDDEQFLAELTRRYGDQMGKLELLGDRFVFQVQLMQSDRYVLPRLALIGDAAHNCHPVGGQGLNLGIRDAAALAQVIQTAHQAGKDIGDIQILKGYERWRKLENLTILGFTDLLDRMFSNNFLPVVVVRRLGLWFLQRVPLLKVFMLKLMIGLKGRTPELAKR | not soluble
MGSDKIHHHHHHMALYKTESGEIHLVRDICPHRGVPLTKGWVDGEEIVCPYHGLRYNTEGKCTQIPAQPELTKISDRFSLTKFPVVQRYGLIWTSIHGRDVTQANIPVLDTWDDAEHQAILPPFVDIGGSSGRQLEGFIDVAHFAWVHHNAFANRDNPIVPKYHTERTNYGLKTVYISNVSNYPHELKHLEPEGFLWKRTFEVYPPFSAVLTVDFPEGGILKILNACCPISSNKTRLFVPLTRNFDQTGDLEKVYAFNAQIFAEDQDMVESQKPEELPLDLMMEAHFEADRSSTTYRRILAEWGLSKRYTV | not soluble
MGSDKIHHHHHHMANDWLELRQHADTGIETIKAHFEGHAYDPHWHDSYLVGLTLSGTQQFHCRRERHRSRPGDAFLLEPGEIHDGDAPVDGGFTYLTFYLDEQWLTNALHGLYESTPGSYSLHFAQTLTREPQLVRSISDSFTTLHNDEMKIVQQSSMDKLLSQITAHCHWRKRLPSQLQSTAVAHRARDYLYAHMGENIGLSDLARETGTDRFTLTRCFKREFHLAPHAWFIQLRLAKARQLLAYGDQPADVAAALGFSDQSHLGRWFQRAYRISPAHYRRLCTNLPDVSRR | not soluble
MGSDKIHHHHHHMANISTFEVGYCLHPGCMALRGAGWKVCRFPARVWMLESHGKRWLWDTGYAQHFTDATRSGLFQLYRRMTPVHFETKDALIHQLHAQGIQPADIDGLIISHFHGDHIAGLQDFPTVPFICSALGWQQTRNLRGFAALKRAFVPALIPEHFEQSLQFVENFPLTDLPAALAPFTQGYVLPGSDKEIVLVPLPGHAVGHLGAFVLTETGWVLLASDAAWSPHSYREGRGPSRLANLVMDDPKAYYQTLDQLHQLHLNGQVEIRLCHEGDL | not soluble
MGSDKIHHHHHHMANLLSTCTSESGNIQHISPQNAGWEYVGFDVWQLKAGESITLPSDERERCLVLVAGLASVKAADSFFYRIGQRMSPFERIPAYSVYLPHHTEAKVTAETDLELAVCSAPGFGELPVRLISPQEVGVEHRGKGRNQRLVHNILPDSQLADSLLVVEVYTNEGDTSSWPAHKHDTAVEGQETYLEETYYHRFNPPQGFCLQRVYTDDRSLDECMAVYNRDVVKVPKGYHPVATIAGYDNYYLNVMAGPLRKWRFTWEENHAWINSPDYPR | not soluble
MGSDKIHHHHHHMANLTFYPIGTAGEKWGETEKAAWLASTQIKRSYQDDVVTPLKAMEAKLSALGLGIVQYGALSINAERYPLFAVKSQQFDPQKPTVLVTGGVHGYETSGVHGALAFLTNEAANYVQQVNLVVAVCVSPWGYETINRWNPKAIDPNRSFYANSPAEESAALMALVASVTSVEQGFDVHVDLHETTDSDELEFRPALCARDGIEYDKGTIPDGFYAVGDTEHSMDAFQKAIIDGVSKVTHIAPADEKGEIIGSTVVQHGVINYPLKSLGLCSSVTGCIYNTTTEVYPDSPTATPAECNLAQVAAITSAIDYVLAQR | not soluble
MGSDKIHHHHHHMAQEALCRKRHEGFNGSMVGVSLADLIQLKGTNRFSGCISVEFGGRCGVIFFQDGEIVHAEKGSCEGEEALQRIMRWPGGRFTAYPHLATDRHSIRKNRQHLLLDAHRAMDERHRHVDPKGERAEQTPLRERIRAIGMVSDAITLDFDGVPTDEKSPSADRLAAGACFLARLADRIGSRLGTGSPTSMVLEGTREHLFIYTGKHHLLAVAAGADHQPPMVEEAIRRAVQTA | not soluble
MGSDKIHHHHHHMAQQKDTKKITVFTSTYNRAYILPKLYESLKLQTCKDFEWLVVDDGSEDETSELFDKWLEEDVIEIAYFKKKNGGKHRAINFAASKAQGQLFFIVDSDDYLTLTAVEIICKEWEKVENKKQSAGLCFRKICYNTGKMIGADFPVSPIDASSLTICYKWKIYEDKAEVFKTELIRRFPFPEIEGEKFISEAIVWNKISVCDSPLLRCVNTGIYMCEYLPDGLTANFIKLMKRNPKGGILYYKSLFNLSCIRKNPIDILKISLRLSQCIIYSFLRCFGSYL | not soluble
MGSDKIHHHHHHMARSHRLFELMQALRRHRRTVSGASLAQELGVSLRTIRRDVATLQGMGADIDGEPGLGYILKPGFLLPPLSFTEEELQALMIGAQWVSRQTDDKFAFAVRNALAKISAVLPVEMRPTLEDETFYISKPLSVSTTIDLSEIRRALRDQCKLSITLAIEHAPKDAQIIWPIMLGFIEARRHLAAWCEGDSQYRVIDMDDIADAHVLTERYTRNRRQLIKEWRALEVLPCNVRGETC | not soluble

Source: the DeepSol protein solubility set
